Test results reported in patent publication US20250327113A1 (ESPERANCE PHARMACEUTICALS, published 2025).

Molecular target: T1, human LHRH receptor (human, UniProt P30968 1-328)
T1 sequence: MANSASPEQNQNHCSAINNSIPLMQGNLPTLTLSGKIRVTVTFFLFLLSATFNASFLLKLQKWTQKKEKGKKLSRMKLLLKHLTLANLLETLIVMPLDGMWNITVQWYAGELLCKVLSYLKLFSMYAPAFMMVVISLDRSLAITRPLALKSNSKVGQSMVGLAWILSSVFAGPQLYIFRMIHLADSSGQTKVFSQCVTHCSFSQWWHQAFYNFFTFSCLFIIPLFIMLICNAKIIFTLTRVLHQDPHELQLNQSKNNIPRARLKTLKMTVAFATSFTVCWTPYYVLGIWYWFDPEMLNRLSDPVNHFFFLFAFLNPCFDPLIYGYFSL
Assay: cell-based or functional assay

KFAKFAKKFAKFAKKFAKQHWSYGLRPG [EP-100 (KFAKFAKKFAKFAKKFAKQHWSYGLRPG)]
cytotoxicity IC50, MTT assay, 24 h, AN3-CA human endometrial cancer cells: 3.3 µM
cytotoxicity IC50, MTT assay, 24 h, LNCaP prostate cancer cells: 1.5 µM
cytotoxicity IC50, MTT assay, 24 h, MDA-MB-231 human breast cancer cells: 5.5 µM
cytotoxicity IC50, MTT assay, 24 h, MDA-MB-435S breast cancer cells: 0.8 µM
cytotoxicity IC50, MTT assay, 24 h, OVCAR-3 ovarian cancer cells: 3 µM
cytotoxicity IC50, MTT assay, 24 h, PC-3 prostate cancer cells: 5.5 µM
